Laboratory results: patent publication US11203743B2, “Method for producing long-chain glycosylated genistein” (Jiangnan University, priority 2019, dated 2021)

How the values were obtained:
[1] = relative to genistein; cited from earlier work
[2] = Specificity of different cyclodextrin glucosyltransferases to glycosylated genistein products (maltodextrin donor, genistein receptor, HPLC); assay type: biochemical
Protocol: Genistein (purchased from Sigma) was dissolved in dimethyl sulfoxide (DMSO) to prepare a genistein solution with a final concentration of 7.5 g/L; maltodextrin (purchased from Shanghai Sangon Biotech Co., Ltd.) was dissolved in a PBS buffer (50 mM, pH 6.5) to prepare a maltodextrin solution with a final concentration of 40 g/L; the freeze-fried pure enzymes of the mutants A156V/L174P, A156V/L174P/166Y, A156V/L174P/A166V, A156V/L174P/A166G, A156V/L174P/A166K, A156S, A156L and L174M obtained in Example 1 were dissolved in a PBS buffer (50 mM, pH 6.5) separately to prepare a CGTase enzyme solution with a final concentration of 15 U/L; 300 μL of the genistein solution, 500 μL of the maltodextrin solution and 200 μL of the CGTase enzyme solution were taken separately, mixed in a 2 mL vial with a lid and placed in a shaker for slow shaking at 40° C. and 120 rpm for 20-24 hours to obtain a reaction solution.
The molar content of short-chain glycosylated genistein (here the short-chain glycosylated genistein was a mixture of monoglycosylated genistein, diglycosylated genistein and triglycosylated genistein) and long-chain glycosylated genistein (here the long-chain glycosylated genistein was a mixture of tetraglycosylated genistein, pentaglycosylated genistein and hexaglycosylated genistein) in the reaction solution was detected by HPLC, the ratio (%) of the molar content of short-chain glycosylated genistein and long-chain glycosylated genistein in the reaction solution to the molar content of total glycosylated genistein in the reaction solution and the content (g/L) of short-chain glycosylated genistein and long-chain glycosylated genistein in the reaction solution were calculated, and detection results were shown in Tables 1 to 2. A method for detecting the ratio (%) of the content of short-chain glycosylated genistein and long-chain glycosylated genistein in the reaction solution to the content of total glycosylated genistein in the reaction solution by HPLC included that the reaction solution was filtered through a 0.22 μm filter membrane, and an Amethyst C18-H column (4.6*250 mm, Sepax, America) was used for detection (see Table 3 for specific detection conditions). The content of long-chain glycosylated genistein=the molar content of hexaglycosylated genistein*the molecular weight of hexaglycosylated genistein+ the molar content of pentaglycosylated genistein*the molecular weight of pentaglycosylated genistein+ the molar content of tetraglycosylated genistein*the molecular weight of tetraglycosylated genistein, and the content of short-chain glycosylated genistein=the molar content of triglycosylated genistein*the molecular weight of triglycosylated genistein+ the molar content of diglycosylated genistein*the molecular weight of diglycosylated genistein+ the molar content of monoglycosylated genistein*the molecular weight of monoglycosylated genistein.

[3] = Effect of reaction temperature on the yield of long-chain glycosylated genistein; assay type: biochemical
Protocol: On the basis of Example 2, the mutant A156V/L174P/A166Y with the highest specificity to long-chain glycosylated genistein products was selected, and the reaction temperature was changed into 30° C., 35° C., 40° C., 45° C., 50° C., 55° C. and 60° C. separately.
(§1) With reference to Example 2, the molar content of short-chain glycosylated genistein (here the short-chain glycosylated genistein was a mixture of monoglycosylated genistein, diglycosylated genistein and triglycosylated genistein) and long-chain glycosylated genistein (here the long-chain glycosylated genistein was a mixture of tetraglycosylated genistein, pentaglycosylated genistein and hexaglycosylated genistein) in a reaction solution was detected by HPLC, the ratio (%) of the molar content of short-chain glycosylated genistein and long-chain glycosylated genistein in the reaction solution to the molar content of total glycosylated genistein in the reaction solution and the content (g/L) of short-chain glycosylated genistein and long-chain glycosylated genistein in the reaction solution were calculated, and detection results were shown in Table 4 and FIG. 1.

[4] = Effect of reaction pH on the yield of long-chain glycosylated genistein; assay type: biochemical
Protocol: On the basis of Example 2, the mutant A156V/L174P/A166Y with the highest specificity to long-chain glycosylated genistein products was selected, the reaction temperature was controlled to be 50° C., and the reaction pH was changed into 4, 5, 6, 7 and 8 separately.
as §1, with “5” for “4”, “2.” for “1.”

[5] = 40° C., pH 6.5, 120 rpm, 20-24 hours

Question: With genistein triglucoside as the molecule, how does the “solubility in water, times higher than that of genistein” value [1] read?
Answer: 44,000 times

Question: Which “solubility in water, times higher than that of genistein” value [1] does the source give for genistein diglucoside here?
Answer: 3,700 times

B1: A156V/L174P/A166Y: cyclodextrin glucosyltransferase mutant: A156V, L174P and alanine 166 into tyrosine of SEQ ID NO: 1 (protein)
chain: SPDTSVDNKVNFSTDVIYQIVTDRFADGDRTNNPAGDAFSGDRSNLKLYFGGDWQGIIDKINDGYLTGMGVTALWISQPVENITSVIKYSGVNNTSYHGYWARDFKQTNDAFGDFADFQNLIDTAHAHNIKVVIDFAPNHTSPADRDNPGFAENGVLYDNGSLLGYYSNDTAGPFHHNGGTDFSTIEDGIYKNLYDLADINHNNNAMDAYFKSAIDLWLGMGVDGIRFDAVKHMPFGWQKSFVSSIYGGDHPVFTFGEWYLGADQTDGDNIKFANESGMNLLDFEYAQEVREVFRDKTETMKDLYEVLASTESQYDYINNMVTFIDNHDMDRFQVAGSGTRATEQALALTLTSRGVPAIYYGTEQYMTGDGDPNNRAMMTSFNTGTTAYKVIQALAPLRKSNPAIAYGTTTERWVNNDVLIIERKFGSSAALVAINRNSSAAYPISGLLSSLPAGTYSDVLNGLLNGNSITVGSGGAVTNFTLAAGGTAVWQYTAPETSPAIGNVGPTMGQPGNIVTIDGRGFGGTAGTVYFGTTAVTGSGIVSWEDTQIKAVIPKVAAGKTGVSVKTSSGTASNTFKSFNVLTGDQVTVRFLVNQANTNYGTNVYLVGNAAELGSWDPNKAIGPMYNQVIAKYPSWYYDVSVPAGTKLDFKFIKKGGGTVTWEGGGNHTYTTPASGVGTVTVDWQN
modifications: Translated from synthetic DNA
Question: With B1 as the molecule, how does the “content of long-chain glycosylated genistein in the reaction solution” value [2, 5] read?
Answer: 8.5 g/L

Question: What about the “content of short-chain glycosylated genistein in the reaction solution” value [2, 5] of the same molecule?
Answer: 8.0 g/L

Question: And the “ratio of the molar content of long-chain glycosylated genistein to the molar content of total glycosylated genistein in the reaction solution” value [2, 5]?
Answer: 40%

Question: And the “ratio of the molar content of short-chain glycosylated genistein to the molar content of total glycosylated genistein in the reaction solution” value [2, 5]?
Answer: 60%

Question: What about the “specificity to long-chain glycosylated genistein products in comparison with wild type” value ([2]; in words, from Tables 1 to 2) of the same molecule?
Answer: significantly improved

Question: What about the “increase of the yield of long-chain glycosylated genistein compared with wild-type cyclodextrin glucosyltransferase” value ([2]; versus wild type) of the same molecule?
Answer: 165%

Question: What about the “content of long-chain glycosylated genistein in the reaction solution” value ([3]; 30° C.) of the same molecule?
Answer: 6.8 g/L

Question: What about the “content of short-chain glycosylated genistein in the reaction solution” value ([3]; 30° C.) of the same molecule?
Answer: 8.9 g/L

Question: And the “content of long-chain glycosylated genistein in the reaction solution” value ([3]; 35° C.)?
Answer: 7.6 g/L

Question: What about the “content of short-chain glycosylated genistein in the reaction solution” value ([3]; 35° C.) of the same molecule?
Answer: 8.5 g/L

Question: What about the “content of long-chain glycosylated genistein in the reaction solution” value ([3]; 40° C.) of the same molecule?
Answer: 8.4 g/L

Question: And the “content of short-chain glycosylated genistein in the reaction solution” value ([3]; 40° C.)?
Answer: 8.0 g/L

Question: And the “increase of the yield of long-chain glycosylated genistein in comparison with 40° C.” value ([3]; 45-50° C. versus 40° C.)?
Answer: 21.4-23.8%

Question: What about the “content of long-chain glycosylated genistein in the reaction solution” value ([3]; 45° C.) of the same molecule?
Answer: 10.1 g/L

Question: And the “content of short-chain glycosylated genistein in the reaction solution” value ([3]; 45° C.)?
Answer: 6.8 g/L

Question: What about the “content of long-chain glycosylated genistein in the reaction solution” value ([3]; 50° C.) of the same molecule?
Answer: 10.0 g/L

Question: What about the “content of short-chain glycosylated genistein in the reaction solution” value ([3]; 50° C.) of the same molecule?
Answer: 6.6 g/L

Question: And the “content of long-chain glycosylated genistein in the reaction solution” value ([3]; 55° C.)?
Answer: 8.9 g/L

Question: What about the “content of short-chain glycosylated genistein in the reaction solution” value ([3]; 55° C.) of the same molecule?
Answer: 5.6 g/L

Question: What about the “content of long-chain glycosylated genistein in the reaction solution” value ([3]; 60° C.) of the same molecule?
Answer: 5.7 g/L

Question: What about the “content of short-chain glycosylated genistein in the reaction solution” value ([3]; 60° C.) of the same molecule?
Answer: 3.6 g/L

Question: And the “ratio of the molar content of long-chain glycosylated genistein to the molar content of total glycosylated genistein in the reaction solution” value ([3]; FIG. 1, highest value reached with rising temperature)?
Answer: 49%

Question: And the “increase of the ratio of long-chain to total glycosylated genistein in comparison with 40° C.” value ([3]; FIG. 1, versus 40° C.)?
Answer: 21%

Question: And the “yield of long-chain glycosylated genistein” value ([3]; temperature 45-50° C. (highest))?
Answer: 10.2 to 10.4 g/L

Question: What about the “ratio of the molar content of long-chain glycosylated genistein to the molar content of total glycosylated genistein in the reaction solution” value ([4]; FIG. 2, pH 4 (highest)) of the same molecule?
Answer: 70%

Question: What about the “increase of the ratio of long-chain to total glycosylated genistein in comparison with pH 6.5” value ([4]; FIG. 2, pH 4 versus pH 6.5) of the same molecule?
Answer: 30%

Question: What about the “content of long-chain glycosylated genistein in the reaction solution” value ([4]; pH 4, 50° C.) of the same molecule?
Answer: 10.2 g/L

Question: What about the “content of short-chain glycosylated genistein in the reaction solution” value ([4]; pH 4, 50° C.) of the same molecule?
Answer: 2.6 g/L

Question: And the “yield of long-chain glycosylated genistein” value ([4]; pH 4 or 8 (highest), 50° C.)?
Answer: 10.2 to 10.3 g/L

Question: And the “increase of the yield of long-chain glycosylated genistein in comparison with pH 6.5” value ([4]; pH 4 or 8 versus pH 6.5)?
Answer: 20%

Question: What about the “content of long-chain glycosylated genistein in the reaction solution” value ([4]; pH 5, 50° C.) of the same molecule?
Answer: 7.2 g/L

Question: What about the “content of short-chain glycosylated genistein in the reaction solution” value ([4]; pH 5, 50° C.) of the same molecule?
Answer: 8.8 g/L

Question: What about the “content of long-chain glycosylated genistein in the reaction solution” value ([4]; pH 6, 50° C.) of the same molecule?
Answer: 8.5 g/L

Question: And the “content of short-chain glycosylated genistein in the reaction solution” value ([4]; pH 6, 50° C.)?
Answer: 8.0 g/L

Question: What about the “content of long-chain glycosylated genistein in the reaction solution” value ([4]; pH 7, 50° C.) of the same molecule?
Answer: 9.7 g/L

Question: And the “content of short-chain glycosylated genistein in the reaction solution” value ([4]; pH 7, 50° C.)?
Answer: 5.5 g/L

Question: What about the “content of long-chain glycosylated genistein in the reaction solution” value ([4]; pH 8, 50° C.) of the same molecule?
Answer: 10.3 g/L

Question: And the “content of short-chain glycosylated genistein in the reaction solution” value ([4]; pH 8, 50° C.)?
Answer: 3.6 g/L
